Assay results as given in patent US20250276077A1, “EPHA2 ANTIBODIES” (Immunome, Inc., priority 2022, published 2025).
Numbering of substitutions follows the chain as printed. Each block holds one molecule with its values, some of them ahead of it.

Columns and labels:
[1] = target: T1, extracellular domain of human EphA2 (25-534) (Homo sapiens, UniProt P29317); assay: Epitope binning by bio-layer interferometry (Octet, in-tandem); format: binding
T1 construct: extracellular domain of human EphA2 (25-534) with a C-terminal HIS tag; purchased R&D Systems 3035-A2
Experimental: Epitope binning was performed using an Octet Red 96E instrument (Sartorius) using the in-tandem format. In this format, antigen is captured on a biosensor tip, a first antibody (or other binding partner) is bound to saturation, and subsequently the ability of a second antibody (or binding partner) known to recognize the antigen is assessed. If substantial binding by the second species is no longer observed, it is supportive that simultaneous binding is sterically hindered (i.e., the second species is “blocked” by pre-saturation of the 1st) and that the two may bind overlapping epitopes. If, however, substantial binding of the second species is observed, despite saturation of the first, it is supportive that the two bind non-overlapping epitopes. Groups of antibodies that block one another can be considered to populate the same epitope bin.
The fourth antibody Fv region (AB-008873) was discovered via Atreca's Immune Repertoire Capture (IRC™). Antibodies were produced with mouse IgG2a constant regions. The natural ligand tested was EphrinA1 fused to Fc (Acro, EF1-H5251). Antigen immobilized on the biosensor was the extracellular domain of human EphA2 (25-534) with a C-terminal HIS tag (R&D Systems, 3035-A2) and captured using Ni-NTA tips (Sartorius, 18-5102). Protein solutions were made in 1× Kinetics buffer (Satorius, 18-1092) supplemented with 2.5 mM Imidazole to reduce non-specific binding. Each pairwise interaction was assessed in both orders of addition, and controls for binding in the absence of antigen or with antigen but without a first binding species included. Binning indicated the five molecules populated only two Bins. The first bin contains molecules AB-008873 and AB-010018 and was interpreted to represent epitopes on the membrane proximal fibronectin domain of EphA2 based on the reported epitope location of DS-8895a (Hasegawa, J. et al., Novel anti-EPHA2 antibody, DS-8895a for cancer treatment. Cancer Biology and Therapy, 17(11), 1158-1167 (2016)). The second bin contains molecules AB-010017. AB-010016, and EphrinA1-Fc and was interpreted to represent epitopes on the ligand binding domain (Peng, L. et al., Structural and functional characterization of an agonistic anti-human EphA2 monoclonal antibody. Journal of Molecular Biology, 413(2), 390-405 (2011); Geddie, M. L. et al., Improving the developability of an anti-EphA2 single-chain variable fragment for nanoparticle targeting. MAbs, 9(1), 58-67 (2017)). FIG. 5, Tables 41-42. Referring to FIG. 5, the FN2 location in the first bin is inferred from domain deletion data reported in Hasegawa et al., 2016, FIG. 1, noting that the reported MMP cleavage sites are (385/395/432/435).

A549 cells = assay: ADCC (KILR target cells, NK92 CD16 chimera effector cells); format: cell-based, human; conditions: for EC50 / ADCC - dAct rel. parent, Trial 1 / ADCC - dAct rel. parent, Trial 2: A549 tumor cells; for ADCC - dAct rel. parent, Trial 1: Trial 1, relative to parent antibody; for ADCC - dAct rel. parent, Trial 2: Trial 2, relative to parent antibody
Experimental: (§1) To detect Antibody-dependent cellular cytotoxicity (ADCC), KILR™-transfected target cells were opsonized with different concentrations of the antibody at room temperature for 20 minutes. Following, NK92 cells carrying a mouse extracellular-human intracellular CD16 chimera were added at a 5:1 ratio of effector to target cells. After a 4 h co-culture at 37° C. and 5% CO2, pre-mixed KILR™ detection reagent was added to each well at equal volume and allowed to incubate for 30 min at room temperature in the dark before reading luminescence on a pate reader. Cytotoxicity was calculated after background (spontaneous release) subtraction and expressed as percent of a maximum lysis control.

PC3-KILR cells = assay: as above; format: cell-based, human
Experimental: as §1

T1 sequence (P29317 25-534): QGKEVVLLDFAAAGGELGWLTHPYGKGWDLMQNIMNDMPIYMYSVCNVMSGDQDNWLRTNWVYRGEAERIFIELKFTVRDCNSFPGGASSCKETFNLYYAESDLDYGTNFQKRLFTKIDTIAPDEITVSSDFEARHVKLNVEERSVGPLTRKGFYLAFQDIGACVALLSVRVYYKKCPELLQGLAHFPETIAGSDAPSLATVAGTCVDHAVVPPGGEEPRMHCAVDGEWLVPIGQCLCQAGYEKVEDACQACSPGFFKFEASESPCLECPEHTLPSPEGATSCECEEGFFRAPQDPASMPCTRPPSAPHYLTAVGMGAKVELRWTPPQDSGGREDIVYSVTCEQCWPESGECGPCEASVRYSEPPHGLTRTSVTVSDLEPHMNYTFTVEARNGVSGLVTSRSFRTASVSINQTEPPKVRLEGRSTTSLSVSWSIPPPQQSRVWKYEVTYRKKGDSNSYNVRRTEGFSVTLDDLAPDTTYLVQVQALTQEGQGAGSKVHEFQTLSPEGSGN

epitope bin ([1]; first bin: membrane proximal fibronectin domain, second bin: ligand binding domain): second bin
B1: EphrinA1-Fc: natural ligand EphrinA1 fused to Fc (Acro, EF1-H5251) (protein)
chain: DRHTVFWNSSNPKFRNEDYTIHVQLNDYVDIICPHYEDHSVADAAMEQYILYLVEHEEYQLCQPQSKDQVRWQCNRPSAKHGPEKLSEKFQRFTPFTLGKEFKEGHSYYYISKPIHQHEDRCLRLKVTVSGKITHSPQAHDNPQEKRLAADDPEVRVLHSIGHS
modifications: left off: a dimerising Fc or GST

Octet in tandem binning, Notes/Scoring ([1]; label = Analyte 1, Analyte 2 8873-02, NiNTA tip, Ligand R&D ECD-06): Binding observed
Octet in tandem binning (blocked / binds) ([1]; paired with 8873-2 (column; Bin #1 - FN2)): binds
Octet in tandem binning (blocked / binds) ([1]; paired with 10016-01 (Bin #2 - LBD)): blocked
Octet in tandem binning (blocked / binds) ([1]; paired with 10017-01 (Bin #2 - LBD)): blocked
Octet in tandem binning (blocked / binds) ([1]; paired with 10018-01 (column; Bin #1 - FN2)): binds
Octet in tandem binning (blocked / binds) ([1]; paired with Ephrin-A1 (Bin #2 - LBD)): blocked
B2: Ephrin-A1 (protein)
chain: B1 chain
modifications: left off: a dimerising Fc or GST

EC50 (A549 cells): ~6 pM
B3: AB-010685: VH SEQ ID NO: 638, VL SEQ ID NO: 703; H107TI; L29SY; L92SH relative to AB-010361 (antibody, V domains shown)
VH: QVQLQQWGAGLLKPSETLSLTCAVYGGSFSGYYWSWIRQPPGKGLEWIGEINHRGSINYNNYNPSLKSRVTISVDTSKNQFSLKLSSVTAADTAVYYCAKPLRPHCINGVCYSGDAFDIWGQGTMVTVAS
VL: SYVLTQPPSVSVAPGQTARITCGGNNIGYKNVHWYQQKPGQAPVLVVYDDSDRPSGIPEQFSGSNSGNTATLTISRVEAGDEADYYCQVWDHSSDHVVFGGGTKLTVL
ADCC - dAct rel. parent, Trial 1 (A549 cells): 161.1%
ADCC - dAct rel. parent, Trial 2 (A549 cells): 106.4%
ADCC activity on A549 cells (in words) (A549 cells; comparisons are to AB-008873 or parent): improved ADCC activity
ADCC potency on PC3-KILR cells (in words) (PC3-KILR cells): highly potent
fold improvement in ADCC as compared to AB-010018 (PC3-KILR cells; PC3-KILR cells): 10 fold

B4: AB-010684: VH SEQ ID NO: 637, VL SEQ ID NO: 702; H107TI; L92SH relative to AB-010361 (antibody, V domains shown)
VH: B3 VH
VL: B3 VL with Y29S
ADCC - dAct rel. parent, Trial 1 (A549 cells): 166.6%
ADCC - dAct rel. parent, Trial 2 (A549 cells): 115.4%

B5: AB-010678: VH SEQ ID NO: 631, VL SEQ ID NO: 696; L23GR; L92SH relative to AB-010361 (antibody, V domains shown)
VH: B3 VH with I107T
VL: B3 VL with G23R, Y29S
ADCC - dAct rel. parent, Trial 1 (A549 cells): 154.2%
ADCC - dAct rel. parent, Trial 2 (A549 cells): 93.9%

B6: AB-010670: VH SEQ ID NO: 623, VL SEQ ID NO: 688; H107TI; L92SH relative to AB-010357 (antibody, V domains shown)
VH: B3 VH with G31D
VL: B3 VL with Y29S
ADCC - dAct rel. parent, Trial 1 (A549 cells): 178.2%

B7: AB-010688: VH SEQ ID NO: 641, VL SEQ ID NO: 706; L29SY; L93SE relative to AB-010361 (antibody, V domains shown)
VH: B3 VH with I107T
VL: B3 VL with H92S, S93E
ADCC - dAct rel. parent, Trial 1 (A549 cells): 129.9%
ADCC - dAct rel. parent, Trial 2 (A549 cells): 108.0%

B8: AB-010669: VH SEQ ID NO: 622, VL SEQ ID NO: 687; L30KM; L92SH relative to AB-010357 (antibody, V domains shown)
VH: B3 VH with G31D, I107T
VL: B3 VL with Y29S, K30M
ADCC - dAct rel. parent, Trial 1 (A549 cells): 177.7%

B9: AB-010667: VH SEQ ID NO: 620, VL SEQ ID NO: 685; L29SY; L92SH relative to AB-010357 (antibody, V domains shown)
VH: B3 VH with G31D, I107T
VL: B3 VL
ADCC - dAct rel. parent, Trial 1 (A549 cells): 154.8%
ADCC - dAct rel. parent, Trial 2 (A549 cells): 108.9%

B10: AB-010687: VH SEQ ID NO: 640, VL SEQ ID NO: 705; L93SE relative to AB-010361 (antibody, V domains shown)
VH: B3 VH with I107T
VL: B3 VL with Y29S, H92S, S93E
ADCC - dAct rel. parent, Trial 1 (A549 cells): 166.8%

B11: AB-010674: VH SEQ ID NO: 627, VL SEQ ID NO: 692; L29SY; L93SE relative to AB-010357 (antibody, V domains shown)
VH: B3 VH with G31D, I107T
VL: B3 VL with H92S, S93E
ADCC - dAct rel. parent, Trial 1 (A549 cells): 171.2%
ADCC - dAct rel. parent, Trial 2 (A549 cells): 97.2%

B12: AB-010683: VH SEQ ID NO: 636, VL SEQ ID NO: 701; L30KM; L92SH relative to AB-010361 (antibody, V domains shown)
VH: B3 VH with I107T
VL: B3 VL with Y29S, K30M
ADCC - dAct rel. parent, Trial 1 (A549 cells): 174.8%
ADCC - dAct rel. parent, Trial 2 (A549 cells): 100.0%

B13: AB-010672: VH SEQ ID NO: 625, VL SEQ ID NO: 690; L93SR relative to AB-010357 (antibody, V domains shown)
VH: B3 VH with G31D, I107T
VL: B3 VL with Y29S, H92S, S93R
ADCC - dAct rel. parent, Trial 1 (A549 cells): 162.9%

B14: AB-010664: VH SEQ ID NO: 617, VL SEQ ID NO: 682; L23GR; L92SH relative to AB-010357 (antibody, V domains shown)
VH: B3 VH with G31D, I107T
VL: B3 VL with G23R, Y29S
ADCC - dAct rel. parent, Trial 1 (A549 cells): 167.7%

EC50 (A549 cells): ~8 pM
B15: AB-010681: VH SEQ ID NO: 634, VL SEQ ID NO: 699; L29SY; L92SH relative to AB-010361 (antibody, V domains shown)
VH: B3 VH with I107T
VL: B3 VL
ADCC - dAct rel. parent, Trial 1 (A549 cells): 152.1%
ADCC - dAct rel. parent, Trial 2 (A549 cells): 104.6%

B16: AB-010686: VH SEQ ID NO: 639, VL SEQ ID NO: 704; L93SR relative to AB-010361 (antibody, V domains shown)
VH: B3 VH with I107T
VL: B3 VL with Y29S, H92S, S93R
ADCC - dAct rel. parent, Trial 1 (A549 cells): 132.3%

B17: AB-010673: VH SEQ ID NO: 626, VL SEQ ID NO: 691; L93SE relative to AB-010357 (antibody, V domains shown)
VH: B3 VH with G31D, I107T
VL: B3 VL with Y29S, H92S, S93E
ADCC - dAct rel. parent, Trial 1 (A549 cells): 166.4%
